The values that follow are results of earlier work, collected in paper PMC5576036.

The target in data set [1] is CD25 (IL-2Rα) (Homo sapiens) (UniProt P01589).
The target in data set [2] is CD122 (IL-2Rβ) (Homo sapiens) (UniProt P14784).
Data set [3] has as its target intermediate-affinity IL-2R (CD122/CD132) (Homo sapiens) (UniProt P14784).

UniProt P01589, sequence (P01589 22-240): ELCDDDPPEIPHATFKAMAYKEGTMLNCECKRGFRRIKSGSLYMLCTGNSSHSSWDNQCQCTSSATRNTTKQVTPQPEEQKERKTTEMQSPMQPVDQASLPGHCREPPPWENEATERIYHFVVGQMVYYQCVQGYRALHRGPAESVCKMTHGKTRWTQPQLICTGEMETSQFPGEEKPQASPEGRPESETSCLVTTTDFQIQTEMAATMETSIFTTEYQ

As to IL-2 (from UniProt P60568), the Kd is 10 nM in data set [1], 100 nM in data set [2] and 1 nM in data set [3].
